According to paper doi:10.1101/2022.07.22.500997 (bioRxiv, 2022):

Legend:
[1] = target: Dg_(GH172a) (HMPREF9455_02467), DUF2961 / GH172 exo-D-arabinofuranosidase from Dysgonomonas gadei (Dysgonomonas gadei) (UniProt F5IZF0); assay: SEC-MALS
[2] = target: Dg_(GH172b) (HMPREF9455_02471), DUF2961 / GH172 exo-D-arabinofuranosidase from Dysgonomonas gadei (Dysgonomonas gadei) (UniProt F5IZF4); assay: SEC-MALS
[3] = target: Dg_(GH172c) (HMPREF9455_02479), DUF2961 / GH172 exo-D-arabinofuranosidase from Dysgonomonas gadei (Dysgonomonas gadei) (UniProt F5IZG2); assay: SEC-MALS
[4] = target: Dg_(GH172c) (HMPREF9455_02479), DUF2961 / GH172 exo-D-arabinofuranosidase from Dysgonomonas gadei (Dysgonomonas gadei) (UniProt F5IZG2); assay: crystal structure
[5] = target: Myc_(GH172) (GII36_05205), DUF2961 / GH172 enzyme from Candidatus Mycosynbacter amalyticus (Candidatus Mycosynbacter amalyticus); assay: SEC-MALS
SEC-MALS = target: the molecule itself; assay: SEC-MALS

In the case of “Dg_(GH172a) (HMPREF9455_02467), DUF2961 / GH172 exo-D-arabinofuranosidase from Dysgonomonas gadei (from UniProt F5IZF0 1-386) (enzyme)”, the stoichiometry N [1] is reported as 12.

“Dg_(GH172b) (HMPREF9455_02471), DUF2961 / GH172 exo-D-arabinofuranosidase from Dysgonomonas gadei (from UniProt F5IZF4 1-643) (enzyme)” was tested, and the stoichiometry N [2] was 2.

“Dg_(GH172c) (HMPREF9455_02479), DUF2961 / GH172 exo-D-arabinofuranosidase from Dysgonomonas gadei (from UniProt F5IZG2 1-402) (enzyme)” showed a stoichiometry N [3] of 6 and a stoichiometry N [4] of 6.

Molecule “Myc_(GH172) (GII36_05205), DUF2961 / GH172 enzyme from Candidatus Mycosynbacter amalyticus” has a stoichiometry N [5] of 3.

B1: Noc_(GH172) (O3I_017420), DUF2961 / GH172 enzyme from Nocardia brasiliensis (enzyme)
chain: MTPPRRSELWLLDDTRTRSVSAENPTGAPGGGARATTGTGAHAARLLGPGWKISPSIVLGDGETATLADVSGPGVLRHCWLTTDRAALRELTLRMYWDDAAEPAIDVPLGDFFCNGWDELALVDSEMVVVAPAGGLNSYWPMPFRRRARITLENHCGRSVPVYYQITYGEEDVPGEAGYLHARWSRSAPLGSPAVHTLLDTGPARGRYVGTYLAIRPGAPRWWGEGEMKFYLDGDDEYPTLCGTGTEDYFGGAWNFDMDGKYRTYSTAYLGLPQALPADEIYQAHQRFGMYRWHVHDPICFHRELRVTVQGLGWRDSDTYLPLEDAEIATTVWWYQEVPPSG
For B1, the “stoichiometry N” value (SEC-MALS) was 3.
